This passage reports self-cleavage results from the RNAGym collection of RNA variant scans (doi:10.7554/elife.80360).

B1: Hairpin Ribozyme (parent)
chain: GUCCUCUUUCACGUGCGCGUGAAAGAGAGAAGUGAACCAGAGAAACACACGUUGUGGUAUAUUACCUGGUA

The variants in the series derive from B1. The series is described as follows: self-cleavage, relative activity (ratio to wild type); higher = more cleavage; co-transcriptional.
With G40A A47C, the self-cleavage amounted to 0.194. For G40C C65A, the self-cleavage turned out to be 0.145. On to G40C C65G, for which the self-cleavage is 0.156. Consider G40A G42C, for which the self-cleavage amounted to 0.0893. Turning to G42A A47U, the self-cleavage came to 0.0842. As for A41C U67A, the self-cleavage was 0.27. The value for A39U U58G was 0.227. The value for A39U U58C was 0.46. Turning to A39U U58A, the self-cleavage is 0.328. The value for G42U C48G was 0.134; that for A39G G57C was 0.105; that for A39G G57U was 0.0985.

A39G G57A: the self-cleavage came to 0.129.

In the case of A39U C46G, the self-cleavage worked out at 0.164.

G40C G42A: the self-cleavage is 0.0581. Consider G40C G42U, for which the self-cleavage was determined as 0.191. For G42A U62G, the self-cleavage is 0.154. For A39U C65U, the self-cleavage was 0.201. Regarding A39U C65A, the self-cleavage was determined as 0.238. With A41U C48A the figure was 0.31. The value for A41U C48U was 0.132.

As to G40C C46G, the self-cleavage came out at 0.21.

For G40U A64G, the self-cleavage was 0.103. Consider G40U U60G, for which the self-cleavage stood at 0.128. Regarding A41G U62G, the self-cleavage was determined as 0.325. With G40U A71U the figure was 0.131. The value for G42A A44G was 0.201; that for G42A A44U was 0.207. With G42A A44C the figure was 0.27; with G40A A61C, 0.14.

As to G40C U67A, the self-cleavage amounted to 0.0737. For A41U A43C, the self-cleavage is 0.231. For the variant A41U A43G, the self-cleavage was 0.0919.

Turning to G42U U52A, the self-cleavage was 0.379. The value for G42U U52C was 0.4.

For the variant G42U U52G, the self-cleavage worked out at 0.135.

Regarding G42C U58G, the self-cleavage worked out at 0.289.

For G40C U60C, the self-cleavage is 0.135.

With A41C A43U, the self-cleavage was 0.13. A41G U67A: the self-cleavage turned out to be 0.527. Turning to G42U C65A, the self-cleavage was 0.142. G40C G56U: the self-cleavage worked out at 0.152. With A39U G51C the figure was 0.35; with A39U G51A, 0.585. As to G40U C50U, the self-cleavage amounted to 0.11. The value for G40C C50U was 0.198; that for A41U A71U was 1.15; that for A41C G57A was 0.128. G40A G51A: the self-cleavage worked out at 0.578. With G40C U52A the figure was 0.209; with A41C G54U, 0.724. The value for G42C was 0.318; that for G42U was 0.289; that for G42A was 0.223. G40U A61U: the self-cleavage came to 0.132.

For the variant G40U A61C, the self-cleavage is 0.0593. The value for A39U U62C was 0.133; that for G40C A41G was 0.163. Regarding A41C C48A, the self-cleavage was 0.218.

As to G40C A44U, the self-cleavage was determined as 0.151. Consider G40C A44G, for which the self-cleavage came to 0.101. Take A41C A61C: the self-cleavage amounted to 0.456. G40A G57C: the self-cleavage was determined as 0.0825. The value for G40A G57U was 0.0976; that for G40C A49C was 0.0764; that for G40C A49G was 0.132.

For G40C A49U, the self-cleavage is 0.169. As for G40U A47U, the self-cleavage was determined as 0.131. Take G42U U53G: the self-cleavage was 0.198.

As to G42C C65G, the self-cleavage was 0.117. Take G42C C65U: the self-cleavage was found to be 0.215. In the case of G42C U52A, the self-cleavage came to 0.256. With G42A A59C the figure was 0.195. With G40C A61U the figure was 0.224; with A41U U67C, 0.456. With A41C A71C, the self-cleavage was 1.53. A39G U62A: the self-cleavage was 0.12. As to A39G U62C, the self-cleavage is 0.145. Turning to G42A A45C, the self-cleavage was 0.0962. G42U U70G: the self-cleavage worked out at 0.105.

Take A41U A49U: the self-cleavage came out at 0.725. The value for A39U A41C was 0.3; that for A39U A41U was 0.458.

On to G42C U63A, for which the self-cleavage was 0.18. The value for A39G G51A was 0.396. Consider G40A U63A, for which the self-cleavage was 0.161. With G40A U63C the figure was 0.15; with G42U U55G, 0.165; with G42U U55C, 0.155.

With G40U C66A, the self-cleavage stood at 0.593.

With G40U C66G, the self-cleavage was determined as 0.11. The value for G42C A71C was 0.664.

Take G40U G57A: the self-cleavage was determined as 0.128. As to A39G U70C, the self-cleavage amounted to 0.372. With A39G U70G the figure was 0.332; with A39G U70A, 0.2; with A39G U60G, 0.21. In the case of A41C C65A, the self-cleavage was 0.782. With A41C C65U the figure was 0.513.

Take A41C C65G: the self-cleavage amounted to 0.247. For A41C U60G, the self-cleavage was 0.998.

Turning to G42A G68C, the self-cleavage was determined as 0.15. The value for G42A G68A was 0.14; that for G40C A71G was 0.165; that for G40C A71C was 0.401. For the variant G42C A61C, the self-cleavage was found to be 0.133. With A41U A47C the figure was 0.955; with A41U U60C, 1.24; with A41G A44C, 0.109.

Turning to A41C A47C, the self-cleavage was 0.468. With A41G G68A the figure was 0.55; with A41G A59G, 0.17; with A41U G51A, 1.11. With G40U C46U the figure was 0.106; with G40U C46A, 0.16; with G40U G68U, 0.195. The value for G42U G56A was 0.231; that for G42C A64U was 0.0972; that for G42C A64C was 0.252. As to A39U U53G, the self-cleavage was 0.179.

Regarding G42A G56U, the self-cleavage turned out to be 0.13. With G42A G56A the figure was 0.191; with G42C C46G, 0.103. The value for G42A A71G was 0.296; that for A39G U67C was 0.544; that for A39G U67G was 0.147.

A39U G42C: the self-cleavage stood at 0.158. A39U G42A: the self-cleavage is 0.18. Regarding G40C U55C, the self-cleavage is 0.163. As to G40C U55G, the self-cleavage was found to be 0.138. The value for G42A A64G was 0.141; that for A41G G42U was 0.236; that for A41G U52A was 0.669.

For the variant G40A U60C, the self-cleavage came out at 0.413. On to A41U A45C, for which the self-cleavage came to 0.258. The value for G40A A71G was 0.402; that for G42A G51A was 0.25. For G42A G51U, the self-cleavage is 0.207. G42A G51C: the self-cleavage worked out at 0.21.

Regarding G42C A43C, the self-cleavage worked out at 0.137. A41G U58G: the self-cleavage amounted to 1.1. Consider A41U G68A, for which the self-cleavage came out at 0.504. The value for A41U C46U was 0.0994.

Take A41C A64C: the self-cleavage worked out at 0.285.

On to A39U, for which the self-cleavage is 0.424.

Take A41G G56C: the self-cleavage came to 0.165. G42A A49U: the self-cleavage is 0.11. The value for G42A A49C was 0.168; that for A41G A64C was 0.0864; that for A41G A64U was 0.206. With A41C U52C the figure was 0.79; with A39U A44G, 0.119. The value for G40C A45U was 0.267; that for G40C A45G was 0.0193. For G40A G69A, the self-cleavage was 0.122.

As to G40A G54C, the self-cleavage was 0.0891.

G40A G54A: the self-cleavage is 0.19.

A41C G68C: the self-cleavage worked out at 0.225. With A41C G68U the figure was 0.177. On to A41C G68A, for which the self-cleavage was 0.249. For the variant A43C A49C, the self-cleavage is 0.199. As to G42A G69U, the self-cleavage came out at 0.219. The value for A41U C65G was 0.563; that for G40C U70A was 0.143. As to G40C U70G, the self-cleavage is 0.131. Take G40C U70C: the self-cleavage was 0.13. The value for G40A U67G was 0.147.
